Test results published in publication PMC5518211 (Journal of Molecular Recognition, 2017).
Like-named read-outs stand apart in the source and are kept apart here. Ends that are not written are not given here.

Assays:
Test in all cases: SPR
Calmodulin [1] = molecular target: T1, Calmodulin ( (human brain CaM or …, UniProt P0DP23 1-149))
Calmodulin [2] = molecular target: T1, Calmodulin; remark: listed apart in the source
Calmodulin [3] = molecular target: T1, Calmodulin; remark: listed apart in the source
Calmodulin [4] = molecular target: T1, Calmodulin; remark: listed apart in the source

Binder	Kd (Calmodulin [1])	koff (Calmodulin [1])	kon (Calmodulin [1])	Kd (Calmodulin [2])	Kd (Calmodulin [3])	koff (Calmodulin [4])	kon (Calmodulin [4])
Full-length recombinant human neurogranin with a His-tag at the N-terminus (natural protein) MDCCTENACSKPDDDILDIPLDDPGANAAAAKIQASFRGHMARKKIKSGERGRKGPGPGGPGGAGVARGGAGGGPSGD	480 nM	0.16 s⁻¹	340000 M⁻¹ s⁻¹	19000 nM	–	–	–
LKKFNARRKLKGAILTTMLA (not fully specified) [Peptide corresponding to the CaM-binding region of CaMKIIα (CaMKII 290-309)]	–	–	–	–	7.1 nM	~1 s⁻¹	~1e+09 M⁻¹ s⁻¹
